In assay [1] the target is T1, human NT5E expressed on MDA-MB-231 cells (human, UniProt P21589 27-549).
T1 construct: whole, on cells; also called NT5E-expressing MDA-MB-231 cells; CD73
T1 sequence (looked up): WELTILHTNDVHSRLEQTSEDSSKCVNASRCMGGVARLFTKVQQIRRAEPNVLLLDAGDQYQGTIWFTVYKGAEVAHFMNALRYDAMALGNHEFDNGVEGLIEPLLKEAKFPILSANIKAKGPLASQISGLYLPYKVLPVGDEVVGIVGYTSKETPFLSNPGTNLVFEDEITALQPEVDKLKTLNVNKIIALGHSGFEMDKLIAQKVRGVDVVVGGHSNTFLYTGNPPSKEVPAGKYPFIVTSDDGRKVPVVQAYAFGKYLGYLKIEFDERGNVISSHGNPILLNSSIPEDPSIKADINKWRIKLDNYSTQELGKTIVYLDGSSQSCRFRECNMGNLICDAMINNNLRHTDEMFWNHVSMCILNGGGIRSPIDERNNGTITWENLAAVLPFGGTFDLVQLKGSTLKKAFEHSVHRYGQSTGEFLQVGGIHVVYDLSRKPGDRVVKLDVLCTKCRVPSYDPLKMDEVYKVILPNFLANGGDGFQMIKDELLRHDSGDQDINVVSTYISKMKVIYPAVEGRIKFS
Put plainly: flow cytometry on MDA-MB-231 cells, 1 mM ATP. The protocol: (§1) Flow cytometry analysis of antibodies binding to human NT5E expressed on MDA-MB-231 cells in ATP-free condition (black) or in 1 mM ATP (red). Top panel: (left) 1780 Fab and (right) 1780 IgG titrations. […] Binding was measured at the indicated range of antibody concentrations and is expressed as mean±st. dev of median fluorescence intensity (MFI) of 1-2 replicates. Data were analyzed using OriginLab, and EC₅₀ values are shown next to the fitted curves.
(§2) Human MDA-MB-231 cells and murine 4T1 cells were grown to 90% confluency, detached with 5 mM EDTA for 15 min at 37° C. and then resuspended in 37° C. lx PBS (#10010031, Gibco) supplemented with 1% FBS and 1OpM ZnCl2. Separate working buffers (WB) of PBS and 1% FBS with or without fixed nucleotide concentrations were used throughout all washing steps to maintain constant condition. In 96-well plates (#3799, Costar), 0.2×10⁶ cells were added per well. The plates were spun at 500×g for 5 min and the supernatant was removed. Anti-NT5E antibodies were diluted to the desired concentration in 100 μL WB, added to the cells and the plates were incubated for 20 min at 37° C. Plates were spun and cells were washed twice with WB then spun a second time. Cells were stained with 100 μL of secondary antibody (Alexa Fluor 647 AffiniPure Goat Anti-Human IgG, F(ab′)2 fragment specific, #109-605-006, Jackson, 1:200) dilution and plates were incubated for 20 min at 37° C. Cells were washed twice with WB then fixed on ice with WB supplemented with 0.5% PFA. Fixing solution was removed by centrifugation and cells were resuspended in cold 1× PBS. Samples were analyzed by flow cytometry using CytoFLEX (Beckman Coulter) and mean fluorescence intensity (MFI) data was extracted using FlowJo software. Resulting binding data was plotted using OriginLab.
Background: In flow cytometry, cells or beads pass a laser one at a time.

Assay [2] addresses T1, human NT5E expressed on MDA-MB-231 cells. Put plainly: flow cytometry on MDA-MB-231 cells, 1 mM ATP. The protocol:
as §1, §2
The source holds these as a separate data set.

The target in assay [3] is T2, murine NT5E expressed on 4T1 cells (murine, UniProt Q61503 29-551).
T2 construct: whole, on cells; also called mouse NT5E-expressing 4T1 cells
T2 sequence (looked up): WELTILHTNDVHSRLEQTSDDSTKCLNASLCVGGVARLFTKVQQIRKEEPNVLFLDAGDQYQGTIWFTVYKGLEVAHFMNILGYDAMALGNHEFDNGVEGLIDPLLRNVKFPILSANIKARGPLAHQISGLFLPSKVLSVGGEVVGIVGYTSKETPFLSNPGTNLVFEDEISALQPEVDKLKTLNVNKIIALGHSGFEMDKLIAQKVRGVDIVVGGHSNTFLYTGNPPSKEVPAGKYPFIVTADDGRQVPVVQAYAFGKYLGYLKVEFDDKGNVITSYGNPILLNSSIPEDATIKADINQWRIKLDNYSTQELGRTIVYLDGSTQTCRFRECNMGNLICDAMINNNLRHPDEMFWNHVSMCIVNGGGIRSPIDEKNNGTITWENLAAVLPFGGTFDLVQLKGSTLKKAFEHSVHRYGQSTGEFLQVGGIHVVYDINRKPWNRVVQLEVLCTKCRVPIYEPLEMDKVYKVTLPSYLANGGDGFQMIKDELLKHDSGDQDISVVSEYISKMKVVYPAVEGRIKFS
Nature of the assay: flow cytometry on 4T1 cells, single Fab concentration, -ATP. The protocol:
as §2

The values below come from patent US20240199757A1 (UNIVERSITY OF CHICAGO, published 2024).

Read-outs that look alike come from different tables or passages of the source.

B1: 1780 Fab (Fab, V domains shown)
VH: EVQLVESGGGLVQPGGSLRLSCAASGFNFYSYSIHWVRQAPGKGLEWVASISSSSGYTYYADSVKGRFTISADTSKNTAYLQMNSLRAEDTAVYYCARYSWWGWHMEGWWGYMNAFDYWGQGTLVTV
VL: DIQMTQSPSSLSASVGDRVTITCRASQSVSSAVAWYQQKPGKAPKLLIYSASSLYSGVPSRFSGSRSGTDFTLTISSLQPEDFATYYCQQAHPKPITFGQGTKVEIKR
The EC50 is the concentration that produces a half-maximal response. Lower therefore signals a more potent agent. For B1, the values for the EC50 in assay [1] and in assay [2] were 40.8 nM and 37 nM, respectively. In assay [3], the binding result is recorded as “no binding (tested: 200 nM)”.
